Data on two molecules can be found in article PMC12903857 (Journal of the American Chemical Society, 2026).

Test [1] concerns the target T1, 14-3-3σ (UniProt P31947 1-248).
T1 construct: 14-3-3σ (sigma isoform of 14-3-3, SFN), the protein titrated in the fluorescence anisotropy assays; With the covalent compounds of the FA assays C38 becomes modified in the sample; also called sigma isoform
T1 sequence (looked up): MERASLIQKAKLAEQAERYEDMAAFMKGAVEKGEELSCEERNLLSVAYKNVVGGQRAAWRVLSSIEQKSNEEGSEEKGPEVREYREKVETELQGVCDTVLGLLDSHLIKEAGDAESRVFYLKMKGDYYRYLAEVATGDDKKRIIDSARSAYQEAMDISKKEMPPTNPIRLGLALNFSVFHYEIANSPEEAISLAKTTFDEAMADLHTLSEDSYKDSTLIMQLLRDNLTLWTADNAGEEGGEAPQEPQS
As to the kind of experiment: fluorescence polarisation; fluorescence anisotropy protein titration: 14-3-3σ titrated into 10 nM labeled peptide in the presence of DMSO; apparent. As to conditions: both partners purified. On the technique in general: Polarisation of emitted light reports the rotation of a fluorescent probe.

In test [2] the target is T2, B-RAF (NanoBRET fusion) (UniProt P15056 1-766).
T2 construct: B-RAF, full-length RAF client of the cell assays; Used in the 14-3-3σ/B-RAF and the B-RAF/C-RAF NanoBRET assays; the fusion partner may differ between them; The cell line is told for the first NanoBRET assays only; source: HEK293T, transfected, in cells; not shown: NanoLuciferase or HaloTag (from the NanoBRET method)
As to the kind of experiment: FRET or BRET; NanoBRET in HEK293T cells: RAF tagged with NanoLuciferase, 14-3-3σ with HaloTag/fluorescent HaloTag ligand; dose responses of compounds against DMSO. As to conditions: partners not purified. A general note: BRET reads energy transfer from a luciferase to a nearby fluorophore.

Test [3] concerns the target T3, C-RAF-NanoLuciferase (Nluc) (UniProt P04049 1-648).
T3 construct: C-RAF, full-length RAF client of the cell assays; source: HEK293T, transfected, in cells
The test is described as above. Particulars: partners not purified.

In test [4] the target is T4, A-RAF (NanoBRET fusion) (UniProt P10398 1-606).
T4 construct: A-RAF, full-length RAF client of the cell assays; Used in the 14-3-3σ/A-RAF and the A-RAF/C-RAF NanoBRET assays; the fusion partner may differ between them; The cell line is told for the first NanoBRET assays only; source: HEK293T, transfected, in cells; not shown: NanoLuciferase or HaloTag (from the NanoBRET method)
Described as above. Particulars: partners not purified.

Non-standard residues stand in square brackets, D forms with d. No end group written: not given here. pS = N[C@@H](COP(=O)(O)O)C(=O)O

T2 sequence (P15056 whole entry, the tested form may be a part): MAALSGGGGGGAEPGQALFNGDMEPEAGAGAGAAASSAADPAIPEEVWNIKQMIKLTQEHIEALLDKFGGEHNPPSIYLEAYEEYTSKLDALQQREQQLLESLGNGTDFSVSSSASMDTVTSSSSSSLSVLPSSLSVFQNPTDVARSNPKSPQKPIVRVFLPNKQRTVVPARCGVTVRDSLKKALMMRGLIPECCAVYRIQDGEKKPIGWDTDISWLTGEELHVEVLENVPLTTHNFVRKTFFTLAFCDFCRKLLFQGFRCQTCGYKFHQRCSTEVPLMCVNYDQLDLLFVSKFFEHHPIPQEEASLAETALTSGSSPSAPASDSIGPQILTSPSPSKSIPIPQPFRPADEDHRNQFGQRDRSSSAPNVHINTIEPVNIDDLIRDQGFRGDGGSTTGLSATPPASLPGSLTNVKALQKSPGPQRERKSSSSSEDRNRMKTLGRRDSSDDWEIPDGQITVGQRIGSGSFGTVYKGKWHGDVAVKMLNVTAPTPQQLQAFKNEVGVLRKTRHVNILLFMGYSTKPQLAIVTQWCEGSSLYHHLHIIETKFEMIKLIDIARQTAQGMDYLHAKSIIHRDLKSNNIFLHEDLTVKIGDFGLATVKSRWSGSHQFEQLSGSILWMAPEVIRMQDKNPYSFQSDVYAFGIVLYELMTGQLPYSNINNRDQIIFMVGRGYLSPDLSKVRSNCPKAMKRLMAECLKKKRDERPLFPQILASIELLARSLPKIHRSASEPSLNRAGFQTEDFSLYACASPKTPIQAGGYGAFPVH

Consider QRST[pS]TPNVH (also: FAM label, site not given here) [FAM-labeled C-RAF259 peptide (10-mer)], for which the Kd in test [1] was found to be 8.43 µM.

B1: 14-3-3σ-Halotag (HT) (natural protein, UniProt P31947 1-248, looked up)
chain: MERASLIQKAKLAEQAERYEDMAAFMKGAVEKGEELSCEERNLLSVAYKNVVGGQRAAWRVLSSIEQKSNEEGSEEKGPEVREYREKVETELQGVCDTVLGLLDSHLIKEAGDAESRVFYLKMKGDYYRYLAEVATGDDKKRIIDSARSAYQEAMDISKKEMPPTNPIRLGLALNFSVFHYEIANSPEEAISLAKTTFDEAMADLHTLSEDSYKDSTLIMQLLRDNLTLWTADNAGEEGGEAPQEPQS
modifications: fluorescent HaloTag ligand on the HaloTag
notes: 14-3-3σ, full length, for NanoBRET; also called full-length 14-3-3σ; source: HEK293T, transfected, in cells
Take B1: in test [2], the “fold increase (BRET signal) with 22” value is 1.4 fold and the “fold increase (BRET signal) with 23” value worked out at 1.4 fold. Besides, in test [3], the “fold stabilization (BRET signal) with 22 against DMSO” value was determined as 1.5 fold, the “fold stabilization (BRET signal) with 23 against DMSO” value was 1.6 fold, the “fold stabilization (BRET signal) with 70 against DMSO” value came to 1.3 fold and the “fold stabilization (BRET signal) with 78 against DMSO” value was 1.4 fold. In addition, in test [4], the “fold increase (BRET signal) with 10 μM 22” value came to 1.6 fold and the “fold increase (BRET signal) with 10 μM 23” value turned out to be 1.7 fold.
